Experimental data: patent publication US20100311648A1 (AstraZeneca / MedImmune, published 2010)
Positions of bridges follow the written chain, without caps; N, C: chain ends. Non-standard residues stand in square brackets, D forms with d. dPhe(3,4,5-F3) = N[C@H](Cc1cc(F)c(F)c(F)c1)C(=O)O; dPhe(2-CF3) = N[C@H](Cc1ccccc1C(F)(F)F)C(=O)O; dPhe(3,5-F2) = N[C@H](Cc1cc(F)cc(F)c1)C(=O)O; dPhe(4-CN) = N#Cc1ccc(C[C@@H](N)C(=O)O)cc1; dPhe(3-Cl) = N[C@H](Cc1cccc(Cl)c1)C(=O)O; dPhe(2-Cl) = N[C@H](Cc1ccccc1Cl)C(=O)O; dPhe(2-Me) = Cc1ccccc1C[C@@H](N)C(=O)O; dPhe(4-F) = N[C@H](Cc1ccc(F)cc1)C(=O)O; dPhe(2-F) = N[C@H](Cc1ccccc1F)C(=O)O; Orn = NCCC[C@H](N)C(=O)O

B1: Ac-Arg-cyclo(Glu-Arg-D-Phe(3-Cl)-Arg-Trp-Orn)-NH2 (peptide)
peptide: Ac-RER[dPhe(3-Cl)]RW[Orn]-NH2
modifications: lactam 2-7
SMILES: CC(=O)N[C@@H](CCCNC(=N)N)C(=O)N[C@H]1CCC(=O)NCCC[C@@H](C(N)=O)NC(=O)[C@H](Cc2c[nH]c3ccccc23)NC(=O)[C@H](CCCNC(=N)N)NC(=O)[C@@H](Cc2cccc(Cl)c2)NC(=O)[C@H](CCCNC(=N)N)NC1=O
notes: also called No. 99
B2: Ac-Arg-cyclo(Glu-Lys-D-Phe(3-Cl)-Arg-Trp-Orn)-NH2 (peptide)
peptide: Ac-REK[dPhe(3-Cl)]RW[Orn]-NH2
modifications: lactam 2-7
SMILES: CC(=O)N[C@@H](CCCNC(=N)N)C(=O)N[C@H]1CCC(=O)NCCC[C@@H](C(N)=O)NC(=O)[C@H](Cc2c[nH]c3ccccc23)NC(=O)[C@H](CCCNC(=N)N)NC(=O)[C@@H](Cc2cccc(Cl)c2)NC(=O)[C@H](CCCCN)NC1=O
notes: also called No. 100
B3: Ac-Arg-cyclo(Glu-Thr-D-Phe(3-Cl)-Arg-Trp-Orn)-NH2 (peptide)
peptide: Ac-RET[dPhe(3-Cl)]RW[Orn]-NH2
modifications: lactam 2-7
SMILES: CC(=O)N[C@@H](CCCNC(=N)N)C(=O)N[C@H]1CCC(=O)NCCC[C@@H](C(N)=O)NC(=O)[C@H](Cc2c[nH]c3ccccc23)NC(=O)[C@H](CCCNC(=N)N)NC(=O)[C@@H](Cc2cccc(Cl)c2)NC(=O)[C@H]([C@@H](C)O)NC1=O
notes: also called No. 36
B4: Ac-Arg-cyclo(Glu-Thr-D-Phe(2-Cl)-Arg-Trp-Orn)-NH2 (peptide)
peptide: Ac-RET[dPhe(2-Cl)]RW[Orn]-NH2
modifications: lactam 2-7
SMILES: CC(=O)N[C@@H](CCCNC(=N)N)C(=O)N[C@H]1CCC(=O)NCCC[C@@H](C(N)=O)NC(=O)[C@H](Cc2c[nH]c3ccccc23)NC(=O)[C@H](CCCNC(=N)N)NC(=O)[C@@H](Cc2ccccc2Cl)NC(=O)[C@H]([C@@H](C)O)NC1=O
notes: also called No. 32
B5: Ac-Arg-cyclo(Glu-Pro-D-Phe(2-Cl)-Arg-Trp-Orn)-NH2 (peptide)
peptide: Ac-REP[dPhe(2-Cl)]RW[Orn]-NH2
modifications: lactam 2-7
SMILES: CC(=O)N[C@@H](CCCNC(=N)N)C(=O)N[C@H]1CCC(=O)NCCC[C@@H](C(N)=O)NC(=O)[C@H](Cc2c[nH]c3ccccc23)NC(=O)[C@H](CCCNC(=N)N)NC(=O)[C@@H](Cc2ccccc2Cl)NC(=O)[C@@H]2CCCN2C1=O
notes: also called No. 88
B6: Ac-Arg-cyclo(Glu-Gln-D-Phe(3,4,5-triF)-Arg-Trp-Orn)-NH2 (peptide)
peptide: Ac-REQ[dPhe(3,4,5-F3)]RW[Orn]-NH2
modifications: lactam 2-7
SMILES: CC(=O)N[C@@H](CCCNC(=N)N)C(=O)N[C@H]1CCC(=O)NCCC[C@@H](C(N)=O)NC(=O)[C@H](Cc2c[nH]c3ccccc23)NC(=O)[C@H](CCCNC(=N)N)NC(=O)[C@@H](Cc2cc(F)c(F)c(F)c2)NC(=O)[C@H](CCC(N)=O)NC1=O

How the values were obtained:
[1] = target: T1, human melanocortin-4 receptor (human, UniProt P32245 1-332); test: cell-based or functional assay
T1 sequence (P32245 whole entry): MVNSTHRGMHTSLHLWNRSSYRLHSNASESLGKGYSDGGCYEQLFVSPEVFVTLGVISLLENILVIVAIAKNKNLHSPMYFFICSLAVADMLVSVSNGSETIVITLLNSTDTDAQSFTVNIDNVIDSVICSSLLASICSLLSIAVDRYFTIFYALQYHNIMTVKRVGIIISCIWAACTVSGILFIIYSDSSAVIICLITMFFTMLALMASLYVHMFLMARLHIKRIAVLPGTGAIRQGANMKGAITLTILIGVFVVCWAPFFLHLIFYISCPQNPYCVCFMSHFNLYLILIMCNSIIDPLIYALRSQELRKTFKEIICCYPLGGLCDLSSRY

[2] = target: T1, human melanocortin-4 receptor; test: [I125]-NDP-α-MSH competition, hMC4-R HEK-293 membranes
Experimental: A competitive inhibition binding assay was performed for exemplified peptides according to the invention using membrane homogenates prepared from HEK-293 cells that express recombinant hMC4-R, hMC3-R, or hMC5-R, and from B-16 mouse melanoma cells (containing endogenous MC1-R). In some instances, HEK-293 cells that express recombinant hMC1-R were employed. Assays were performed in 96 well GF/B Millipore multiscreen filtration plates (MAFB NOB10) pre-coated with 0.5% bovine serum albumin (Fraction V). […] After incubation for 60 minutes at 37° C., the assay mixture was filtered and the membranes washed three times with ice-cold buffer. Filters were dried and counted in a gamma counter for bound radioactivity. […] Each assay was conducted in triplicate and the actual mean values are described, with results less than 0% reported as 0%. Ki values for test peptides of the present invention were determined using Graph-Pad Prism® curve-fitting software.

Binder	EC50, cAMP, 0.1 ng/mL Doxycycline [1] [nM]	EC50, cAMP, 10 ng/mL Doxycycline [1] [nM]	Intrinsic Activity, cAMP, 0.1 ng/mL Doxycycline [1] [%]	Ki [2] [nM]	Intrinsic Activity, cAMP, 10 ng/mL Doxycycline [1] [%]
Ac-R[Orn]N[dPhe(4-F)]RWE-NH2 (lactam 2-7, also called No. 70) [Ac-Arg-cyclo(Orn-Asn-D-Phe(4-F)-Arg-Trp-Glu)-NH2]	0.4	0.1	64	3	
Ac-R[Orn]Q[dPhe(2-Me)]RWE-NH2 (lactam 2-7) [Ac-Arg-cyclo(Orn-Gln-D-Phe(2-Me)-Arg-Trp-Glu)-NH2]	0.575	0.053	81		104
Ac-R[Orn]Q[dPhe(2-Cl)]RWE-NH2 (lactam 2-7) [Ac-Arg-cyclo(Orn-Gln-D-Phe(2-Cl)-Arg-Trp-Glu)-NH2]	0.39	0.07	83	4	101
Ac-R[Orn]Q[dPhe(3,4,5-F3)]RWE-NH2 (lactam 2-7) [Ac-Arg-cyclo(Orn-Gln-D-Phe(3,4,5-triF)-Arg-Trp-Glu)-NH2]	0.45	0.14	47		100
B1		0.14	32	0.5	94
Ac-RES[dPhe(3-Cl)]RW[Orn]-NH2 (lactam 2-7, also called No. 35) [Ac-Arg-cyclo(Glu-Ser-D-Phe(3-Cl)-Arg-Trp-Orn)-NH2]		1	6	10	84
Ac-REE[dPhe(4-CN)]RW[Orn]-OH (lactam 2-7) [Ac-Arg-cyclo(Glu-Glu-D-Phe(4-CN)-Arg-Trp-Orn)-OH]		269	2	1090	69
Ac-REN[dPhe(3,5-F2)]RW[Orn]-NH2 (lactam 2-7, also called No. 76) [Ac-Arg-cyclo(Glu-Asn-D-Phe(3,5-diF)-Arg-Trp-Orn)-NH2]	3	0.135	53	20	85
Ac-REN[dPhe(2-CF3)]RW[Orn]-NH2 (lactam 2-7, also called No. 116) [Ac-Arg-cyclo(Glu-Asn-D-Phe(2-CF3)-Arg-Trp-Orn)-NH2]	0.68	0.095	77	7	104
Ac-REV[dPhe(4-CN)]RW[Orn]-NH2 (lactam 2-7, also called No. 42) [Ac-Arg-cyclo(Glu-Val-D-Phe(4-CN)-Arg-Trp-Orn)-NH2]		0.5	9	6	84
B2	6	0.27	27	4	93
Ac-REN[dPhe(3,4,5-F3)]RW[Orn]-NH2 (lactam 2-7, also called No. 95) [Ac-Arg-cyclo(Glu-Asn-D-Phe(3,4,5-triF)-Arg-Trp-Orn)-NH2]	1	0.125	42	3	100
Ac-REN[dPhe(4-CN)]RW[Orn]-OH (lactam 2-7, also called No. 85) [Ac-Arg-cyclo(Glu-Asn-D-Phe(4-CN)-Arg-Trp-Orn)-OH]	15	0.707	36	64	94
B3		1	8	6	89
B4	18	0.543	34	11	96
Ac-REN[dPhe(2-Me)]RW[Orn]-NH2 (lactam 2-7, also called No. 73) [Ac-Arg-cyclo(Glu-Asn-D-Phe(2-Me)-Arg-Trp-Orn)-NH2]	0.587	0.068	86	4	102
B5		0.35	15	5	89
Ac-REQ[dPhe(2-F)]RW[Orn]-NH2 (lactam 2-7, also called No. 59) [Ac-Arg-cyclo(Glu-Gln-D-Phe(2-F)-Arg-Trp-Orn)-NH2]	0.6	0.1	90	7	98
Ac-REQ[dPhe(4-CN)]RW[Orn]-NH2 (lactam 2-7; also: acetate salt, acetate salt form; also called Ex 46) [Ac-Arg-cyclo(Glu-Gln-D-Phe(4-CN)-Arg-Trp-Orn)-NH2]	0.666	0.173	40	4	97
Ac-R[Orn]N[dPhe(3,4,5-F3)]RWE-NH2 (lactam 2-7) [Ac-Arg-cyclo(Orn-Asn-D-Phe(3,4,5-triF)-Arg-Trp-Glu)-NH2]		0.235	24		100
B6	0.8	0.1	49		100
